Measurements reported in paper PMC7949108, “Medulloblastoma-associated mutations in the DEAD-box RNA helicase DDX3X/DED1 cause specific defects in translation”.

Tests used:
Test in all cases: fluorescence anisotropy; 2 mM ADP-BeFx; 20 mM HEPES pH 7.5, 40 mM NaCl, 20% glycerol, 2 mM ADP-BeFx; 2 nM RNA, 0-400 nM protein, 30 min; temperature not stated
Conditions in all cases: protein: recombinant; tags: His (pET28a); label: 5' 6-carboxyfluorescein; single strand
Ded1-S371F = Ded1-S371F (Saccharomyces cerevisiae, UniProt P06634 1-604, S371F)
Sequence of Ded1-S371F (P06634 whole entry S371F): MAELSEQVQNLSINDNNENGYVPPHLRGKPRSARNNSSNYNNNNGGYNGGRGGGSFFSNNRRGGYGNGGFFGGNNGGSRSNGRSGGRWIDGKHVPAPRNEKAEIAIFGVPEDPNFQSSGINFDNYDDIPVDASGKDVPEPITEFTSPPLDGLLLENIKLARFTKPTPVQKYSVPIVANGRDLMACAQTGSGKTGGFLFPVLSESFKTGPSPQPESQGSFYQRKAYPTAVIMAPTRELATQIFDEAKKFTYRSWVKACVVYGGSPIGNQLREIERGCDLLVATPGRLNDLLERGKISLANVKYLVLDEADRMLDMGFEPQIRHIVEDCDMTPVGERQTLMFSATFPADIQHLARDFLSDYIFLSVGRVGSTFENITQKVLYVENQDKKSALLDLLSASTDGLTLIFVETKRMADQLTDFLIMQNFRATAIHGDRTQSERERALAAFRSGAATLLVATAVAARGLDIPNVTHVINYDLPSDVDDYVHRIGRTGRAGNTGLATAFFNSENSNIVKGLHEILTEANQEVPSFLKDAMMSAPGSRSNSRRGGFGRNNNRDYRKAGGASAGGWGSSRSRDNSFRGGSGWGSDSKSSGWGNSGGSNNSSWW

Ded1-G488A = Ded1-G488A (Saccharomyces cerevisiae, UniProt P06634 1-604, G488A)
Sequence of Ded1-G488A (P06634 whole entry G488A): as the sequence (P06634 whole entry S371F) above, with F371S, G488A counted along it

Ded1 wild-type = Ded1 wild-type (Saccharomyces cerevisiae, UniProt P06634 1-604)
Sequence of Ded1 wild-type (P06634 whole entry): as the sequence (P06634 whole entry S371F) above, with F371S counted along it

Ded1-M339I = Ded1-M339I (Saccharomyces cerevisiae, UniProt P06634 1-604, M339I)
Sequence of Ded1-M339I (P06634 whole entry M339I): as the sequence (P06634 whole entry S371F) above, with M339I, F371S counted along it

Binder AGCACCGUAAAGACGC (ssRNA) [16-mer RNA oligomer] has a Kd (Ded1-S371F) of 11 nM, a Kd (Ded1-G488A) of 78 nM and a Kd (Ded1 wild-type) of 13 nM. For the same binder, the Kd (Ded1-M339I) was 110 nM.
